Test results as given in publication PMC6221542.

Target: H3K9me3 peptide NH2-…(me3)STGG-minipeg-K(5-fam)-NH2
Assay: fluorescence polarisation

Kd | Substance
210 nM | CBX1 chromodomain V22E/K25E/D59S (domain or fragment)
320 nM | CBX1 chromodomain V22E/K25S/D59F (domain or fragment)
2780 nM | CBX1 chromodomain, wild type (domain or fragment)
